The source of these data is patent US12708677B2, “Contrast agents, methods for preparing contrast agents, and methods of imaging” (Georgia State University Research Foundation, Inc., priority 2008, dated 2026).

Series [1] in a line: Gd^3+-binding affinity, dye competition titration with Fluo-5N. As to conditions: phosphate 50 mM. How it is done: Gd^3+-binding Affinity Determination, […]-binding affinity of CA1.CD2 was determined by a competition titration with Fluo-5N applied as a Gd^3+ indicator. The fluorescence spectra of Fluo-5N were obtained with a fluorescence spectrophotometer (Photon Technology International, Inc.) with a 10 mm path length quartz cell at 22° C. Fluo-5N emission spectra were acquired at […] to 650 nm with an excitation at 488 nm. […] The experiment was performed with a gradual addition of CA1.CD2. An apparent constant, Kapp, was estimated by fitting the fluorescence emission intensity of Fluo-5N at 520 nm with different CA1.CD2 concentrations as a 1 to 1 binding model. Gd^3+-binding affinity of CA1.CD2, Kd2, was calculated with the following equation: […]
Since metal selectivity for Gd^3+ over other physiological metal ions is for minimizing the toxicity of the agents,^39, 40 we measured metal binding constants using dye-competition assays with various chelate-metal buffer systems (Table 1). […]
Gd^3+-binding affinities of CA1.CD2 and its pegylated variants were determined by a competition titration with Fluo-5N applied as a Gd^3+ indicator (Yang et al., JACS, 2008). The fluorescence spectra of Fluo-5N were obtained with a fluorescence spectrophotometer (Photon Technology International, Inc.) with a 10 mm path length quartz cell at 22° C. […]

Series [2] is described as follows: Dynamic NMR, rotational correlation time and S^2 order. Format: physicochemical. How it is done: Therefore, the measured correlation time of the protein directly reflects the τR of the metal binding site. In contrast, the flexible metal binding loop in CA9.CD2 has an S^2 order value of 0.3-0.4, which is very different from CA1.CD2 with an S^2 value very close to that of the backbone of the protein.
Pulse field diffusion NMR was applied to measure the hydrodynamic radii of the protein (Lee et al., BBA 2003) with Protein samples CA1.CD2 and its variants of 0.2 mM in buffer, Lysozme and diaxone were used as an external and internal reference for calibration. The correlation size of the protein was measured using TauC pulse sequence developed by the Prestegard lab at UGA using ^15N labeled protein.

Series [3] deals with AU565 cells. The experiment in a line: Cell binding by immuno-fluorescence staining. Format: cell-based. The following applies: 37 and 4° C. The source says:
(§1) We first examined whether the designed CA1.HER2/Affi can target cancer cells by cell binding analyses. We used two cancer cell lines for the binding analyses. AU565 is derived from breast carcinoma. EMT6 is a mouse mammary tumor cell line. AU565 cells express very high levels of HER2. The EMT is regarded as a HER2 negative cell line. Binding of the Gd-CA1.HER2/Affi to the cancer cells was first analyzed by immuno-fluorescence staining using a polyclonal antibody against PEGylated parental protein CA1.CD2 (PAbPGCA1).

Series [4] relates to EMT6 cells. The series can be described thus: Cell binding by immuno-fluorescence staining. Format: cell-based, mouse.
Excerpt: as §1

B1: CA1.CD2: designed Gd^3+-binding protein, domain 1 of rat CD2 with ligand residues Glu15, Glu56, Asp58, Asp62, Asp64 (protein)
chain: RDSGTVWGALGHGIELNIPNFQMTDDIDEVRWERGSTLVAEFKRKMKPFLKSGAFEIDANGDLDIKNLTRDDSGTYNVTVYSTNGTRILNKALDLRILE
Take B1: in series [1], the “removal of Gd^3+ from the protein by phosphate” value was “not able to remove the Gd^3+ from the protein”. The overall correlation time in series [2] (absence of bound metal ions) amounted to 9.20 ns; in series [2] (presence of bound metal ions), 9.08 ns. For the same molecule, in series [3], the “binding to AU565 cells” value is recorded as “did not bind to either of the tested cultured cells”. In addition, in series [4], the “binding to EMT6 cells” value is “did not bind to either of the tested cultured cells”.
